Measurements from publication doi:10.1101/2023.09.11.557288, “An explainable language model for antibody specificity prediction using curated influenza hemagglutinin antibodies” (bioRxiv, 2023).

Columns and labels:
[1] = target: T1, H1N1 A/Solomon Islands/3/2006 (SI06) HA (Influenza A virus, A/Solomon …, UniProt A7Y8I1); test: BLI; His-tagged antigen at 0.5 uM loaded on anti-Penta-HIS (HIS1K) biosensors, Fab in solution; room temperature; 1x PBS pH 7.4, 0.01% BSA, 0.002% Tween 20; 1:1 binding model; conditions: both partners purified
T1 construct: also called HA from H1N1 A/Solomon Island/3/2006

mini-HA #4900 = target: T2, mini-HA #4900 (Influenza A virus H1N1, designed stem …, stabilised); test: as above; conditions: both partners purified
T2 construct: also called H1 stem-based construct; HA stem-based construct without the HA head domain; not shown: 6xHis, C-terminal, kept

B1: 310–18A5 Fab (Fab, V domains shown)
VH: QVQLMQSGTEVKKPGSSVRVSCKASGSTFNSDAISWVRQAPGQGLEWMGGILGMFRTVNYAQRFQGRVTITADELMSTAYMELSGLRFEDTAVYYCARGDGYKPNFLRYWGQGTLITVSS
VL: TLSLSPGERATLSCRASQSVSSTSLAWYQQKFGQAPRLLIYGASNRATGIPDRFSGSGSGTDFTLTISRLEPEDFAVYYCQQYGNSLTFGGGTKVEIK
[1]
  Kd: 0.2 nM
mini-HA #4900
  Kd: 1 nM
